Several values for one entry are separate records, joined by “and”; a condition that tells them apart may be missing. Equal values may be shown once. Read-outs that look alike come from different tables or passages of the source.
Assays:
[1] = target: H7N9病毒的HA蛋白(购自ACROBiosystems) (H7N9 influenza virus); experiment: ELISA, HA coated at 100 ng/well, negative control, anti-human IgG-HRP
[2] = target: H7N9病毒的HA蛋白(购自ACROBiosystems) (H7N9 influenza virus)
[3] = target: H7N9病毒的HA蛋白(购自ACROBiosystems) (H7N9 influenza virus); remark: listed apart in the source
[4] = target: H7N9病毒 A/Anhui/1/2013 (H7N9 influenza virus A/Anhui/1/2013); experiment: cell-based or functional assay

阴性对照 (negative control of the ELISA)
450nm absorbance [1]: 0.0675 OD450 and 0.0554 OD450

B1: 抗H7N9全人源单克隆抗体7T33 (antibody, V domains shown)
VH: QVQLVESGAEVKKPGASVKVSCKASGTIFYSTEINWVRQATGQGLEWMGWMNPESGEYGFAQKFQGRVTMTRNTSITTAYMELSSLTSEDTAVYYCAYGNAECSAGGSCTNWFGEPWGQGTLVTVSS
VL: SSELTQDPAVSVALGQTVRITCQGDRLRSTTASWYQQKPGQAPVLVIYGKNNRPSGIPDRFSGSSSGNTASLTITGAQAEDEADYYCNSREYSGTHLVFGGGTKLTVLV
Kd [2]: 5.43 nM | 450nm absorbance [3]: 1.53 OD450 and 1.86 OD450 and 1.8 OD450 | IC50, micro-neutralisation ELISA on MDCK cells infected with H7N9 virus [4]: 12.8 mg/L

Reference: patent CN111434682A
